Reference: publication PMC5632138 (Journal of molecular biology, 2017)
Changes are numbered by the printed parent chain.

Experiments:
Assay in all cases: BLI
[1] = biological target: T1, Full-length ETV4 Thr363Ala (UniProt P43268 1-484, Thr363Ala)
T1 sequence (looked up): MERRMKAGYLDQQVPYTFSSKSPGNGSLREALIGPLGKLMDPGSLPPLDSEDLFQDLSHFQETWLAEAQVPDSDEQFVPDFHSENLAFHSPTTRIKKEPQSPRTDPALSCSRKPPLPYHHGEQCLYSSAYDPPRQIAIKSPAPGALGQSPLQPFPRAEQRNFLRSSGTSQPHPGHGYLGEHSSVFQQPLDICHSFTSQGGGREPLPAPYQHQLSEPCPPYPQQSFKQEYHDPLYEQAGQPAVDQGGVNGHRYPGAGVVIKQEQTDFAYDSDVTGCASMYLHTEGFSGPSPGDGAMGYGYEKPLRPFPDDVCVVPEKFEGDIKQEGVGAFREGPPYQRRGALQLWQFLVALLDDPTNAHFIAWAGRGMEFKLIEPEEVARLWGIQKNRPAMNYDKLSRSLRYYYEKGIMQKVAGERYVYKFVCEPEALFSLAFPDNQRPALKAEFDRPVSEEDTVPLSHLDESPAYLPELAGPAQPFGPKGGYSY

[2] = biological target: T2, Full-length ETV4 Ile372Ala (UniProt P43268 1-484, Ile372Ala)
T2 sequence (looked up): T1 sequence (looked up) with A363T, I372A

[3] = biological target: T3, Full-length ETV4 (ETV4^1–484) (UniProt P43268 1-484)
T3 sequence (looked up): T1 sequence (looked up) with A363T

[4] = biological target: T4, Full-length ETV4 Lys370Ala (UniProt P43268 1-484, Lys370Ala)
T4 sequence (looked up): T1 sequence (looked up) with A363T, K370A

[5] = biological target: Full-length FOS (UniProt P01100 1-380)
Chain of Full-length FOS (P01100 whole entry): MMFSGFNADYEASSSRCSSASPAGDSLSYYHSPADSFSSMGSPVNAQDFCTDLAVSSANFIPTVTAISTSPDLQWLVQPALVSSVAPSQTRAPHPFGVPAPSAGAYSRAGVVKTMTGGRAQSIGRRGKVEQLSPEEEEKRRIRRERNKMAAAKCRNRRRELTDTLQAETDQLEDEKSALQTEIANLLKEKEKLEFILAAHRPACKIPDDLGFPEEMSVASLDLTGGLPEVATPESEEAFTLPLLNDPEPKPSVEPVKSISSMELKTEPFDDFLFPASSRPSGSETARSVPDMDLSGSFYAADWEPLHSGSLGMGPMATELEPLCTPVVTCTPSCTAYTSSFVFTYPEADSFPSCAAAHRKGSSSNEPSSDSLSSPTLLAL

B1: MED25 ACID (residues 391–553), biotinylated ligand for biolayer interferometry (domain or fragment, human, UniProt Q71SY5 391-553, looked up)
chain: GQQSVSNKLLAWSGVLEWQEKPKPASVDANTKLTRSLPCQVYVNHGENLKTEQWPQKLIMQLIPQQLLTTLGPLFRNSRMVQFHFTNKDLESLKGLYRIMGNGFAGCVHFPHTAPCEVRVLMLLYSSKKKIFMGLIPYDQSGFVNGIRQVITNHKQVQQQKLE
modifications: biotin (biotinylated; D-biotin added at the induction point)
B1 was tested, and the binding result [1] was “binds”, the binding result [2] was “binds” and the Kd [3] was 5 nM. The binding result [4] was “binds” and the Kd [5] was 9 nM.
